Source: US20050070692A1 (published 2005)

How the values were obtained:
[1] = molecular target: T1, human IL-1β (human, UniProt P01584 117-269); test: competition ELISA on coated human IL-1β against biotinylated Mu007, Exp. C
T1 construct: mature; also called mature human IL-1β; Interleukin-1β
Description: Wells of 96-well ELISA plates (Nunc-lmmuno plate, Cat # 439454, NalgeNunc) were coated with 100 μL of 0.5. μg/mL of human IL-1β in 0.2M sodium carbonate-bicarbonate buffer (pH 9.4) overnight at 4° C., washed with Wash Buffer, blocked with Superblock blocking buffer for 30 min at 37° C., and washed again with Wash Buffer. A mixture of biotinylated Mu007 (0.16 μg/mL final concentration) and competitor antibody (Mu007, Hu007, or Hu007 analogs starting at 100 μg/mL final concentration and serial 3-fold dilutions) in ELISA Buffer were added in triplicate in a final volume of 100 μL per well. As a no-competitor control, 100 μL of 0.16 μg/mL biotinylated Mu007 was used. As a background control, 100 gLL of ELISA Buffer was used. ELISA plates were incubated at 37° C. for 2 hr. After washing the wells with Washing Buffer, 100 μL of 1 μg/mL HRP-conjugated streptavidin (Jackson ImmunoResearch) was added to each well. ELISA plates were incubated at room temperature for 30 min and washed with Washing Buffer. For color development, 100 μL/well of ABTS substrate was added. Color development was stopped by adding 100 μL/well of 2% oxalic acid. Absorbance was read at 415 nm.
Mu007, Hu007 and Hu007 analogs competed with biotinylated Mu007 in a concentration-dependent manner. The IC₅₀ values of Mu007 and Hu007 in three independent ELISA competition experiments, obtained using the computer software Prism (GraphPad Software Inc., San Diego, Calif.) are shown in Table 1. The relative binding of Hu007 was on average 89% of Mu007.

[2] = molecular target: T1, human IL-1β; test: cell-based or functional assay
[3] = molecular target: T2, mouse IL-1β (mouse, UniProt P10749 118-269); test: BIAcore, antibody captured on anti-IgG chip, ligand flowed
T2 sequence (looked up): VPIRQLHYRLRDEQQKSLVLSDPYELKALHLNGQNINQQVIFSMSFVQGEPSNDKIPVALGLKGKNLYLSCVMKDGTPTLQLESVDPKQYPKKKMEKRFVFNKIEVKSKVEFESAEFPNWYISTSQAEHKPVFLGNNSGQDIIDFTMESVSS
Description: (§1) Affinities and specificities of both Hu007 and Mu007 were determined using BlAcore measurements. BIAcore™ is an automated biosensor system that measures molecular interactions. (Karlsson, et al. (1991) J. Immunol. Methods 145: 229-240). In these experiments antibody was immobilized at low density on a BIAcore™ chip. Ethyl-dimethylaminopropyl-carbodiimide (EDC) was used to couple reactive amino groups to purified goat anti-human IgG or goat anti-rabbit IgG to a flow cell of a carboxy-methyl (CM5) BIAcore™ sensor chip. Goat IgG was diluted in sodium acetate buffer, pH 4.0, and immobilized on a flow cell of a CM5 chip using EDC to yield 1000 response units. Unreacted sites were blocked with ehanolamine. A flow rate of 60 μL/min was used. Multiple binding/elution cycles were performed by injection a 100 μL solution of 15 μg/mL Mu007 or Hu007 followed by human IL-1β, mouse IL-1β, rat IL-1β, cynomolgus monkey IL-1β, porcine IL-1β, human IL-1 receptor antagonist, and human IL-1α at decreasing concentrations for each cycle (e.g., 1500, 750, 375, 188, 94, 47, 23.5, 12, and 0 picomolar). Elution was performed with glycine-HCl, pH 1.5. BIAevaluation™ was used to analyze the kinetic data. Table 2 depicts the affinities of Hu007 and Mu007 for human and cynomolgus IL-1β. […] Cynomolgus and porcine IL-1β had 100% binding to Hu007 relative to human IL-1β.

[4] = molecular target: T3, human IL-1 receptor antagonist (human, UniProt P18510 26-177); test: as above
T3 construct: also called IL-1ra
Description: as §1

[5] = molecular target: T4, rat IL-1β (rat, UniProt Q63264 117-268); test: as above
T4 sequence (looked up): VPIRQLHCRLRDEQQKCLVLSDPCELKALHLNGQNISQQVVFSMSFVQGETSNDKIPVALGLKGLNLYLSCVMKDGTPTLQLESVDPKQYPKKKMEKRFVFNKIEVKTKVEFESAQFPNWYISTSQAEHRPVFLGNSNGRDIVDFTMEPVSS
Description: as §1

[6] = molecular target: T5, human IL-1α (human, UniProt P01583 113-271); test: as above
T5 sequence (looked up): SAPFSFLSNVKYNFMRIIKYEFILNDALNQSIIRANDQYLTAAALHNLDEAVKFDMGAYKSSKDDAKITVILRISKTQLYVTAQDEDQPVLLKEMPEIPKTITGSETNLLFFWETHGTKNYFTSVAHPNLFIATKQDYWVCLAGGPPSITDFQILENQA
Description: as §1

T3 sequence (P18510 26-177 limits assumed): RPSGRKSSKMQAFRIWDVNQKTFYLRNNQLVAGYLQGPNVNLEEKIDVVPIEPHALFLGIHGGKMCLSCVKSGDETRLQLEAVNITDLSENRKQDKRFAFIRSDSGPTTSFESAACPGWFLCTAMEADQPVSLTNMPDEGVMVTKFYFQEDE

B1: humanized antibody Hu007 (antibody, human IgG1, kappa, V domains shown)
VH: QVQLVQSGAEVKKPGASVKVSCKVSGYTFSRYWIEWVRQAPGKGLEWIGEILPGNGNINYNEKFKGKATITADTSTDTAYMELSSLRSEDTAVYYCSTIYYDYDQGFTYWGQGTLVTVSS
VL: DIQMTQSPSSLSASVGDRVTITCKASQDIDRYLSWFQQKPGKAPKSLIYRVKRLVDGVPSRFSGSASGTDYTLTISSLQPEDFATYYCLQYDEFPYTFGQGTKLEIKR
notes: Human IgG1 kappa; also called WT; Hu007 WT
Hu007/Mu007 × 100 (IC50 ratio, relative binding against Mu007) [1]: 82%
IC50 [1]: 0.32 µg/mL
IC50, inhibition of human IL-1β stimulated proliferation [2]: 57 Picomolar
binding result [3]: no binding
binding result [4]: no binding
binding result [5]: no binding
binding result [6]: no binding
